We go through 13 molecules from patent US20040071712A1.

For this test, the target named is human mpl receptor (c-Mpl, the TPO receptor) (human) (UniProt P40238). In words: cell-based or functional assay.
Consider IEGPTLRQWLAARAGGIEGPTLRQWLAARA [TMP-(G)n-TMP, n = 2 (peptide 3)], for which the increase in potency as compared to the monomer (cell proliferation assay) is more than 1000 fold. IEGPTLRQWLAARAGGGIEGPTLRQWLAARA [TMP-(G)n-TMP, n = 3 (peptide 4)]: the increase in potency as compared to the monomer (cell proliferation assay) is more than 1000 fold. Molecule IEGPTLRQWLAARAGGGGGGGGIEGPTLRQWLAARA [TMP-(G)n-TMP, n = 8 (peptide 9)] yielded an increase in potency as compared to the monomer (cell proliferation assay) of more than 1000 fold.

IEGPTLRQWLAARAIEGPTLRQWLAARA [TMP-(G)n-TMP, n = 0 (peptide 1)] yielded an increase in potency as compared to the monomer (cell proliferation assay) of more than 1000 fold. On to IEGPTLRQWLAARAGGGGIEGPTLRQWLAARA [TMP-(G)n-TMP, n = 4 (peptide 5)], for which the increase in potency as compared to the monomer (cell proliferation assay) is more than 1000 fold. For IEGPTLRQWLAARAGPNGIEGPTLRQWLAARA [TMP-GPNG-TMP (peptide 13)], the loss of activity against the equivalent GGGG-linked analog (cell proliferation assay) was more than 10 fold and the potency as compared to the monomer (cell proliferation assay) was 100 fold. Consider IEGPTLRQWLAARAGIEGPTLRQWLAARA [TMP-(G)n-TMP, n = 1 (peptide 2)], for which the increase in potency as compared to the monomer (cell proliferation assay) was more than 1000 fold.

IEGPTLRQWLAARAGGGGGGGGGGGGGGIEGPTLRQWLAARA [TMP-(G)n-TMP, n = 14 (peptide 12)]: the increase in potency as compared to the monomer (cell proliferation assay) was more than 1000 fold.

The molecule IEGPTLRQWLAARAGGGGGGGGGIEGPTLRQWLAARA [TMP-(G)n-TMP, n = 9 (peptide 10)] showed an increase in potency as compared to the monomer (cell proliferation assay) of more than 1000 fold. Consider IEGPTLRQWLAARAGGGGGIEGPTLRQWLAARA [TMP-(G)n-TMP, n = 5 (peptide 6)], for which the increase in potency as compared to the monomer (cell proliferation assay) is more than 1000 fold. For IEGPTLRQWLAARAGGGGGGGGGGIEGPTLRQWLAARA [TMP-(G)n-TMP, n = 10 (peptide 11)], the increase in potency as compared to the monomer (cell proliferation assay) is more than 1000 fold.

For IEGPTLRQWLAARAGGGGGGGIEGPTLRQWLAARA [TMP-(G)n-TMP, n = 7 (peptide 8)], the increase in potency as compared to the monomer (cell proliferation assay) was more than 1000 fold. On the same count and under the same terms, under IEGPTLRQWLAARAGGGGGGIEGPTLRQWLAARA [TMP-(G)n-TMP, n = 6 (peptide 7)] stands more than 1000 fold.
